Substitutions are numbered along the chain they refer to.
What was measured:
Assay in all cases: ELONA; RPB-ELISA
v3.1_PPR15 = molecular target: T1, v3.1_PPR15 (Artificial Sequence); details: tags: luciferase fusion; label: 5'-biotin
T1 chain: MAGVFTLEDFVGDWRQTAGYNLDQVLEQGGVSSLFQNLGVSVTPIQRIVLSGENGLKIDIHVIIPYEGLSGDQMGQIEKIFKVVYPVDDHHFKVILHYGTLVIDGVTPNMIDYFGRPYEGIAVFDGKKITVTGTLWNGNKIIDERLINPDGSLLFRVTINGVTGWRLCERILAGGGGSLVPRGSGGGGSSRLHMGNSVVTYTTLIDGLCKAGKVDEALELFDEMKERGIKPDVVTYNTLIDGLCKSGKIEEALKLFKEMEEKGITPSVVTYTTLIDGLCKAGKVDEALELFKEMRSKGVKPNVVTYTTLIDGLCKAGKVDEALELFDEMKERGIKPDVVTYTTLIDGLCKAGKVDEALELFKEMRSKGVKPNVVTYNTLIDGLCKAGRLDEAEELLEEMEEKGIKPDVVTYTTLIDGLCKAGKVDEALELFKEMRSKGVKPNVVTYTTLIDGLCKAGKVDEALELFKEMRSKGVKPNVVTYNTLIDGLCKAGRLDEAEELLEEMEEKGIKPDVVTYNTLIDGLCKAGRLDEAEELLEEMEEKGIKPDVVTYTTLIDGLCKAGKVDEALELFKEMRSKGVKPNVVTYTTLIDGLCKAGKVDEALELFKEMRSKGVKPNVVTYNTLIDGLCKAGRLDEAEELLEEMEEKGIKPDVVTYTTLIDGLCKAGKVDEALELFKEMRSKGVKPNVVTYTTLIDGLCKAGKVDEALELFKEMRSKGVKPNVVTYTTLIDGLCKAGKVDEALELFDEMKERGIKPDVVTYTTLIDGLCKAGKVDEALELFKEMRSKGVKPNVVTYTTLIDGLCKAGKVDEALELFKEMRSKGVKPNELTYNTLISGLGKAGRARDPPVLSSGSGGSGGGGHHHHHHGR

NL_v2_PPR15 = molecular target: T2, NL_v2_PPR15 (Artificial Sequence); details: tags: N-term luciferase, C-term 6xHis; label: 5'-biotin
T2 chain: T1 chain with K283D, K353D, K423D, K458D, K563D, K598D, K668D, K703D, K773D, K808D

NL_v2_PPR14 = molecular target: T3, NL_v2_PPR14 (Artificial Sequence); details: tags: N-term luciferase, C-term 6xHis; label: 5'-biotin
T3 chain: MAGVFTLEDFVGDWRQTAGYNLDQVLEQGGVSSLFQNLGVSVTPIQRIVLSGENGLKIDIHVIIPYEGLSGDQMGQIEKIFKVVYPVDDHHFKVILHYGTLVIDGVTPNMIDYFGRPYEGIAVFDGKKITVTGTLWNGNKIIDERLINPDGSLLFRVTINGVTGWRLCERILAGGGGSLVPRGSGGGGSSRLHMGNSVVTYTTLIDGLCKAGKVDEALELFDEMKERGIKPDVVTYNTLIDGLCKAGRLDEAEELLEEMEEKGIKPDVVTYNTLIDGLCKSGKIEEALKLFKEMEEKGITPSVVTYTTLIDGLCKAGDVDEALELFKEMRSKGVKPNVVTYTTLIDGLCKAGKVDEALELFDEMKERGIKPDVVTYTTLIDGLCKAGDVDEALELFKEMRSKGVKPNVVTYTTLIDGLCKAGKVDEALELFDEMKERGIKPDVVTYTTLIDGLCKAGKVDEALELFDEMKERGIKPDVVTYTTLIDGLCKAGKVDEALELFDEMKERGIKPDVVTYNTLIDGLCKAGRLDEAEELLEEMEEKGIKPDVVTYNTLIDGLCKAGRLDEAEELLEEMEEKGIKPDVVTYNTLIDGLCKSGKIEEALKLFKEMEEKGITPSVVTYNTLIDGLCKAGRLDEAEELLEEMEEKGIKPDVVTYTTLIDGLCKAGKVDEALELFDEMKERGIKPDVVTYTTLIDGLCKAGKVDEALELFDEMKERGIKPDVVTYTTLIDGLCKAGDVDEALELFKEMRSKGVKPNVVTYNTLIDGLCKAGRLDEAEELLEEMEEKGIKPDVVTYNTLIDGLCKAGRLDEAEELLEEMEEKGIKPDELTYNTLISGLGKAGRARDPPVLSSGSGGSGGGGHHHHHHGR

v3.1_PPR14 = molecular target: T4, v3.1_PPR14 (Artificial Sequence); details: tags: luciferase fusion; label: 5'-biotin
T4 chain: T3 chain with D318K, D388K, D738K

v3.1_PPR13 = molecular target: T5, v3.1_PPR13 (Artificial Sequence); details: tags: luciferase fusion; label: 5'-biotin
T5 chain: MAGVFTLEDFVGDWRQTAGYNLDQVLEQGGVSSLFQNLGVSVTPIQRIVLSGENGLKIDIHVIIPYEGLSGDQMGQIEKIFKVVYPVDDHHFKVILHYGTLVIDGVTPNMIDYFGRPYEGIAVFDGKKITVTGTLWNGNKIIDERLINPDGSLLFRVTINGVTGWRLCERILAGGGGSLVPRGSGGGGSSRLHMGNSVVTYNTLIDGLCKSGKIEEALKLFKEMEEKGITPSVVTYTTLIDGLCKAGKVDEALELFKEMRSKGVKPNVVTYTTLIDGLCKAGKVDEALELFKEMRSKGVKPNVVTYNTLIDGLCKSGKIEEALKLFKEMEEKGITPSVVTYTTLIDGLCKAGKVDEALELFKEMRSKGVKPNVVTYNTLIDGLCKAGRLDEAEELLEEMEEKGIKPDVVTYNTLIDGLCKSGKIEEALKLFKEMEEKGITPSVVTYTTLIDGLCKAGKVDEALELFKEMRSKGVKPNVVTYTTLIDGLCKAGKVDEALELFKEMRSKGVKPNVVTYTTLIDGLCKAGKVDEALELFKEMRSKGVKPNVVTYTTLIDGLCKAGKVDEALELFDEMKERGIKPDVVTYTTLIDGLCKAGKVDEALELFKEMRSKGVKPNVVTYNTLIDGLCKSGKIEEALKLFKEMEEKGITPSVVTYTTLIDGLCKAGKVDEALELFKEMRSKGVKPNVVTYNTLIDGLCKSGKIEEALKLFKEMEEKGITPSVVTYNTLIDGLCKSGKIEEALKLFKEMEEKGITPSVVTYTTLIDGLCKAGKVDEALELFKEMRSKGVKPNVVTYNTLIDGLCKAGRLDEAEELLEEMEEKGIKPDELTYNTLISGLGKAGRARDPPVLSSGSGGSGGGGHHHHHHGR

NL_v2_PPR13 = molecular target: T6, NL_v2_PPR13 (Artificial Sequence); details: tags: N-term luciferase, C-term 6xHis; label: 5'-biotin
T6 chain: T5 chain with K248D, K283D, K353D, K458D, K493D, K528D, K598D, K668D, K773D

B1: RNA_15 (ssRNA)
RNA: GACAUGCGCAGAUAAUUAAUAAGAAGACUG
For B1, the binding signal (v3.1_PPR15) was 3.2e+07 luminescence and the binding signal (NL_v2_PPR15) was 1.3e+07 luminescence.

B2: RNA_14 (ssRNA)
RNA: GACAUGCGUCAGAGGGUUCUGGAUUGACUG
Binder B2 has a binding signal (NL_v2_PPR14) of 2.5e+07 luminescence and a binding signal (v3.1_PPR14) of 2.5e+07 luminescence.

B3: RNA_13 (ssRNA)
RNA: GACAUGCCAACAUCAAAGACACCAUGACUG
In the case of B3, the binding signal (v3.1_PPR13) is reported as 4e+07 luminescence and the binding signal (NL_v2_PPR13) is reported as 2.3e+06 luminescence.

Source: patent US20220289795, “EFFICIENT METHOD FOR PREPARING PPR PROTEIN AND USE OF THE SAME” (EditForce, Inc., published 2022)
